From patent US20230192818A1 (TWIST BIOSCIENCE, published 2023)
Where two headings read alike, the source gives them in different places.

Key:
[1] = target: T1, Antibody 178-08_His 501.V2 (27079) (SARS-CoV-2, UniProt P0DTC2 16-685); experiment: SPR (Carterra)
[2] = target: T1, Antibody 178-08_His 501.V2 (27079); experiment: SPR (Carterra); remark: listed apart in the source

B1: 3-31 (Fc fusion)
chain: EVQLVESGGGLVQPGGSLRLSCAASGSTFSINAMGWFRQAPGKEREFVAGITSSGGYTNYADSVKGRFTISADNSKNTAYLQMNSLKPEDTAVYYCAADGVPEYSDYASGPVWGQGTLVTVSS
notes: also called Antibody 3-31
- Kd [1]: 96.7 µM
- Kd [2]: 96.7 µM
